Measured values published in paper PMC5618010 (Viruses, 2017).
Substitutions are numbered along the chain they refer to. Names and notes keep the numbering of the source. No end group written: not given here.

B1: R28A-HD5: HD5 mutant R28A, chemically synthesized; cationicity (peptide, UniProt Q01523 20-94, looked up, variant R28A)
Defensin alpha 5: ESLQERADEATTQKQSGEDNQDLAISFAGNGLSALRTSGSQARATCYCRTGRCATRESLSGVCEISGRLYALCCR
modifications: Defensin-5
B2: Y27A-HD5: HD5 mutant Y27A, chemically synthesized; hydrophobicity (peptide, UniProt Q01523 20-94, looked up, variant Y27A)
Defensin alpha 5: B1 Defensin alpha 5 with Y70A, A71R
modifications: Defensin-5
B3: human α-defensin 5 (peptide, UniProt Q01523 20-94, looked up)
Defensin alpha 5: B1 Defensin alpha 5 with A71R
modifications: Defensin-5
B4: Y4A-HD5: HD5 mutant Y4A, chemically synthesized; hydrophobicity (peptide, UniProt Q01523 20-94, looked up, variant Y4A)
Defensin alpha 5: B1 Defensin alpha 5 with Y47A, A71R
modifications: Defensin-5
B5: S15A-HD5: HD5 mutant S15A, chemically synthesized (peptide, UniProt Q01523 20-94, looked up, variant S15A)
Defensin alpha 5: B1 Defensin alpha 5 with S58A, A71R
modifications: Defensin-5
B6: L16A-HD5: HD5 mutant L16A, chemically synthesized; hydrophobicity (peptide, UniProt Q01523 20-94, looked up, variant L16A)
Defensin alpha 5: B1 Defensin alpha 5 with L59A, A71R
modifications: Defensin-5

Experiments:
Format in all cases: cell-based
HIV-1JR-FL [1] = system: HIV-1JR-FL
HIV-1JR-FL [2] = system: HIV-1JR-FL; remark: listed apart in the source
HIV-1JR-FL [3] = system: HIV-1JR-FL; remark: listed apart in the source

| Molecule | Late RT production compared to WT HD6 (HIV-1JR-FL [1]) | Infectivity 10 μg/mL: relative percent of HIV infectivity compared to WT HD6 (HIV-1JR-FL [2]) [%] | Infectivity 30 μg/mL: relative percent of HIV infectivity compared to WT HD6 (HIV-1JR-FL [2]) [%] | Attachment 10 μg/mL: relative percent of HIV attachment compared to WT HD6 (HIV-1JR-FL [3]) [%] | Attachment 30 μg/mL: relative percent of HIV attachment compared to WT HD6 (HIV-1JR-FL [3]) [%] | Infectivity 10 μg/mL: relative percent of HIV infectivity compared to WT HD5 (HIV-1JR-FL [2]) [%] | Infectivity 30μg/mL: relative percent of HIV infectivity compared to WT HD5 (HIV-1JR-FL [2]) [%] | Loss of HIV attachment-enhancing and infection-enhancing activities (HIV-1JR-FL [2]) | Attachment 10 μg/mL: relative percent of HIV attachment compared to WT HD5 (HIV-1JR-FL [3]) [%] | Attachment 30 μg/mL: relative percent of HIV attachment compared to WT HD5 (HIV-1JR-FL [3]) [%] | Reduction of ability to promote HIV attachment compared to WT HD5 (HIV-1JR-FL [3]) [%] |
| --- | --- | --- | --- | --- | --- | --- | --- | --- | --- | --- | --- |
| Ac-HD6: HD6 acetylated at the N-terminus (Ac-AFTCHCRRSCYSTEYSYGTCTVMGINHRFCCL; ends and bridges not checked; UniProt Q01524 69-100, looked up) | comparable | 58 ± 24 | 175 ± 43 | 57 ± 14 | 87 ± 19 | – | – | – | – | – | – |
| B1 | – | – | – | – | – | 66 ± 5 | 52 ± 3 | about 50% | 54 ± 17 | 59 ± 19 | 41 |
| B2 | – | – | – | – | – | 28 ± 18 | 29 ± 9 | – | 19 ± 11 | 18 ± 9 | – |
| B3 | – | – | – | – | – | 100 ± 0 | 100 ± 0 | – | 100 ± 0 | 100 ± 0 | – |
| B4 | – | – | – | – | – | 136 ± 42 | 75 ± 14 | – | 134 ± 26 | 106 ± 3 | – |
| B5 | – | – | – | – | – | 166 ± 30 | 81 ± 11 | – | 118± 9 | 95 ± 16 | – |
| B6 | – | – | – | – | – | 10 ± 3 | 30 ± 3 | – | 17 ± 5 | 27 ± 7 | – |
